Starred links: 1 amine or outer side, 2 acyl side, 3 side chain; linkers in the order of their positions; H or OH if unused. Residues, ends and D or L forms follow the SMILES beside them. Groups on a side chain read outwards from the residue. *: point of attachment. C20 diacid = O=C(O)CCCCCCCCCCCCCCCCCCC(=O)*; C18 diacid = O=C(O)CCCCCCCCCCCCCCCCC(=O)*; γGlu = O=C(O)[C@H](CCC(=O)[*:2])N[*:1]; AEEA = NCCOCCOCC(=O)O
B1: acylated GLP-1R antagonist analog conjugate (SEQ ID NO: 18) (peptide)
peptide: Ac-DVSSYLEEEAVRLFIAWLVKGGPSSGAPPPSK([AEEA-AEEA-γGlu-C18 diacid])-NH2
SMILES: CC[C@H](C)[C@H](NC(=O)[C@H](Cc1ccccc1)NC(=O)[C@H](CC(C)C)NC(=O)[C@H](CCCNC(=N)N)NC(=O)[C@@H](NC(=O)[C@H](C)NC(=O)[C@H](CCC(=O)O)NC(=O)[C@H](CCC(=O)O)NC(=O)[C@H](CCC(=O)O)NC(=O)[C@H](CC(C)C)NC(=O)[C@H](Cc1ccc(O)cc1)NC(=O)[C@H](CO)NC(=O)[C@H](CO)NC(=O)[C@@H](NC(=O)[C@H](CC(=O)O)NC(C)=O)C(C)C)C(C)C)C(=O)N[C@@H](C)C(=O)N[C@@H](Cc1c[nH]c2ccccc12)C(=O)N[C@@H](CC(C)C)C(=O)N[C@H](C(=O)N[C@@H](CCCCN)C(=O)NCC(=O)NCC(=O)N1CCC[C@H]1C(=O)N[C@@H](CO)C(=O)N[C@@H](CO)C(=O)NCC(=O)N[C@@H](C)C(=O)N1CCC[C@H]1C(=O)N1CCC[C@H]1C(=O)N1CCC[C@H]1C(=O)N[C@@H](CO)C(=O)N[C@@H](CCCCNC(=O)COCCOCCNC(=O)COCCOCCNC(=O)CC[C@H](NC(=O)CCCCCCCCCCCCCCCCC(=O)O)C(=O)O)C(N)=O)C(C)C
B2: acylated GLP-1R antagonist analog conjugate (SEQ ID NO: 16) (peptide)
peptide: Ac-DVSSYLEEEAARLFIAWLVK([AEEA-AEEA-γGlu-C18 diacid])GGPSSGAPPPS-NH2
SMILES: CC[C@H](C)[C@H](NC(=O)[C@H](Cc1ccccc1)NC(=O)[C@H](CC(C)C)NC(=O)[C@H](CCCNC(=N)N)NC(=O)[C@H](C)NC(=O)[C@H](C)NC(=O)[C@H](CCC(=O)O)NC(=O)[C@H](CCC(=O)O)NC(=O)[C@H](CCC(=O)O)NC(=O)[C@H](CC(C)C)NC(=O)[C@H](Cc1ccc(O)cc1)NC(=O)[C@H](CO)NC(=O)[C@H](CO)NC(=O)[C@@H](NC(=O)[C@H](CC(=O)O)NC(C)=O)C(C)C)C(=O)N[C@@H](C)C(=O)N[C@@H](Cc1c[nH]c2ccccc12)C(=O)N[C@@H](CC(C)C)C(=O)N[C@H](C(=O)N[C@@H](CCCCNC(=O)COCCOCCNC(=O)COCCOCCNC(=O)CC[C@H](NC(=O)CCCCCCCCCCCCCCCCC(=O)O)C(=O)O)C(=O)NCC(=O)NCC(=O)N1CCC[C@H]1C(=O)N[C@@H](CO)C(=O)N[C@@H](CO)C(=O)NCC(=O)N[C@@H](C)C(=O)N1CCC[C@H]1C(=O)N1CCC[C@H]1C(=O)N1CCC[C@H]1C(=O)N[C@@H](CO)C(N)=O)C(C)C
B3: acylated GLP-1R antagonist analog conjugate (SEQ ID NO: 15) (peptide)
peptide: Ac-DVSSYLEEEAVRLFIAWLVK([AEEA-AEEA-γGlu-C18 diacid])GGPSSGAPPPS-NH2
SMILES: CC[C@H](C)[C@H](NC(=O)[C@H](Cc1ccccc1)NC(=O)[C@H](CC(C)C)NC(=O)[C@H](CCCNC(=N)N)NC(=O)[C@@H](NC(=O)[C@H](C)NC(=O)[C@H](CCC(=O)O)NC(=O)[C@H](CCC(=O)O)NC(=O)[C@H](CCC(=O)O)NC(=O)[C@H](CC(C)C)NC(=O)[C@H](Cc1ccc(O)cc1)NC(=O)[C@H](CO)NC(=O)[C@H](CO)NC(=O)[C@@H](NC(=O)[C@H](CC(=O)O)NC(C)=O)C(C)C)C(C)C)C(=O)N[C@@H](C)C(=O)N[C@@H](Cc1c[nH]c2ccccc12)C(=O)N[C@@H](CC(C)C)C(=O)N[C@H](C(=O)N[C@@H](CCCCNC(=O)COCCOCCNC(=O)COCCOCCNC(=O)CC[C@H](NC(=O)CCCCCCCCCCCCCCCCC(=O)O)C(=O)O)C(=O)NCC(=O)NCC(=O)N1CCC[C@H]1C(=O)N[C@@H](CO)C(=O)N[C@@H](CO)C(=O)NCC(=O)N[C@@H](C)C(=O)N1CCC[C@H]1C(=O)N1CCC[C@H]1C(=O)N1CCC[C@H]1C(=O)N[C@@H](CO)C(N)=O)C(C)C
B4: acylated GLP-1R antagonist analog conjugate (SEQ ID NO: 20) (peptide)
peptide: Ac-DVSSYLEEEAVRLFIAWLVKGGPSSGAPPPSK([AEEA-AEEA-γGlu-C20 diacid])-NH2
SMILES: CC[C@H](C)[C@H](NC(=O)[C@H](Cc1ccccc1)NC(=O)[C@H](CC(C)C)NC(=O)[C@H](CCCNC(=N)N)NC(=O)[C@@H](NC(=O)[C@H](C)NC(=O)[C@H](CCC(=O)O)NC(=O)[C@H](CCC(=O)O)NC(=O)[C@H](CCC(=O)O)NC(=O)[C@H](CC(C)C)NC(=O)[C@H](Cc1ccc(O)cc1)NC(=O)[C@H](CO)NC(=O)[C@H](CO)NC(=O)[C@@H](NC(=O)[C@H](CC(=O)O)NC(C)=O)C(C)C)C(C)C)C(=O)N[C@@H](C)C(=O)N[C@@H](Cc1c[nH]c2ccccc12)C(=O)N[C@@H](CC(C)C)C(=O)N[C@H](C(=O)N[C@@H](CCCCN)C(=O)NCC(=O)NCC(=O)N1CCC[C@H]1C(=O)N[C@@H](CO)C(=O)N[C@@H](CO)C(=O)NCC(=O)N[C@@H](C)C(=O)N1CCC[C@H]1C(=O)N1CCC[C@H]1C(=O)N1CCC[C@H]1C(=O)N[C@@H](CO)C(=O)N[C@@H](CCCCNC(=O)COCCOCCNC(=O)COCCOCCNC(=O)CC[C@H](NC(=O)CCCCCCCCCCCCCCCCCCC(=O)O)C(=O)O)C(N)=O)C(C)C

Each molecule was assayed against human GLP-1 receptor (GLP-1R) (human, UniProt P43220 24-463) (assay: cell-based or functional assay). Conditions: not given.

Molecule | In vitro activity compared with comparative substance (%); IC50 of cAMP inhibition in hGLP-1R CHO cells with 0.1 nM GLP-1 [%]
B1 | 19.8
B2 | 13.5
B3 | 14.3
B4 | 15.1
Ac-DVSSYLEEQAVREFIAWLVKGGPSSGAPPPS-NH2 [GLP-1R antagonist analog (SEQ ID NO: 9)] | 189
DLSSYLEEEAVRLFIEWLKNGGPSSGAPPPS (N-terminus acetylated; C-terminal amide) [GLP-1R antagonist analog (SEQ ID NO: 10)] | 250
DLSSQMEEEAVRLFIEWLKNGGPSSGAPPPS (N-terminus acetylated; C-terminal amide) [GLP-1R antagonist analog (SEQ ID NO: 5)] | 85
Ac-TSDVSSYLEEEAVRLFIAWLVKGGPSSGAPPPS-NH2 [GLP-1R antagonist analog (SEQ ID NO: 7)] | 196
Ac-DVSSYLEEEAVRLFIAWLVKGGPSSGAPPPS-NH2 [GLP-1R antagonist analog (SEQ ID NO: 8)] | 238
Ac-DVSSYLEEEAVRLFIAWLVKGGPSSGAPPPSC-NH2 [GLP-1R antagonist analog (SEQ ID NO: 12)] | 189

The molecules below were run against human GLP-1R (hGLP-1R) (Homo sapiens, UniProt P43220) (assay: In vitro cell activity: cAMP inhibition (LANCE Ultra cAMP kit) in CHO cells expressing human GLP-1R, with GLP-1 added). Conditions: relative activity from IC50 of cAMP inhibition; 0.1 nM GLP-1 added; comparative substance exendin-3 (9-39) amide = 100.
Sequence of human GLP-1R (hGLP-1R) (P43220 24-463): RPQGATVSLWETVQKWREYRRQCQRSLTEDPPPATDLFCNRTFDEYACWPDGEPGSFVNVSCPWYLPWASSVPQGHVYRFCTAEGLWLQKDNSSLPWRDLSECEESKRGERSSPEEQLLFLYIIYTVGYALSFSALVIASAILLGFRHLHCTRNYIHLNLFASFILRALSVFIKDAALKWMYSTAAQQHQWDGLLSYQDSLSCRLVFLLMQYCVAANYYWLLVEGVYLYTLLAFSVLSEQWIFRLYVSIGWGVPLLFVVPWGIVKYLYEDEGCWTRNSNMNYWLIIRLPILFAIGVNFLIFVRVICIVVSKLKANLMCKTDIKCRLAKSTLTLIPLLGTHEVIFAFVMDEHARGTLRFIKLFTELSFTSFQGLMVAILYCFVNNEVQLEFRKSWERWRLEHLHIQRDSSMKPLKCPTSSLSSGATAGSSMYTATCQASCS
Type: cell-based
Experimental: The human GLP-1R-expressed CHO cells were cultured in a 384-well plate for 24 hours. Thereafter, the culture was removed, and 10 µL of each serially diluted substance was added to the plate, followed by incubation at room temperature for 30 minutes. Then, 5 µL of Eu-cAMP tracer was added, and then 5 µL of a buffer containing cAMP antibodies was added, followed by incubation at room temperature for 60 minutes. […]

Molecule | In vitro activity compared with comparative substance (%)
CC[C@H](C)[C@H](NC(=O)[C@H](Cc1ccccc1)NC(=O)[C@H](CC(C)C)NC(=O)[C@H](CCCNC(=N)N)NC(=O)[C@@H](NC(=O)[C@H](C)NC(=O)[C@H](CCC(=O)O)NC(=O)[C@H](CCC(=O)O)NC(=O)[C@H](CCC(=O)O)NC(=O)[C@H](CC(C)C)NC(=O)[C@H](Cc1ccc(O)cc1)NC(=O)[C@H](CO)NC(=O)[C@H](CO)NC(=O)[C@@H](NC(=O)[C@H](CC(=O)O)NC(C)=O)C(C)C)C(C)C)C(=O)N[C@@H](C)C(=O)N[C@@H](Cc1c[nH]c2ccccc12)C(=O)N[C@@H](CC(C)C)C(=O)N[C@H](C(=O)N[C@@H](CCCCN)C(=O)NCC(=O)NCC(=O)N1CCC[C@H]1C(=O)N[C@@H](CO)C(=O)N[C@@H](CO)C(=O)NCC(=O)N[C@@H](C)C(=O)N1CCC[C@H]1C(=O)N1CCC[C@H]1C(=O)N1CCC[C@H]1C(=O)N[C@@H](CO)C(=O)N[C@@H](CCCCNC(=O)COCCOCCNC(=O)COCCOCCNC(=O)CC[C@H](NC(=O)CCCCCCCCCCCCCCCCC(=O)O)C(=O)O)C(N)=O)C(C)C [SEQ ID NO: 18] (Ac-DVSSYLEEEAVRLFIAWLVKGGPSSGAPPPSK([AEEA-AEEA-γGlu-C18 diacid])-NH2) | 19.8
CC[C@H](C)[C@H](NC(=O)[C@H](Cc1ccccc1)NC(=O)[C@H](CC(C)C)NC(=O)[C@H](CCCNC(=N)N)NC(=O)[C@@H](NC(=O)[C@H](C)NC(=O)[C@H](CCC(=O)O)NC(=O)[C@H](CCC(=O)O)NC(=O)[C@H](CCC(=O)O)NC(=O)[C@H](CC(C)C)NC(=O)[C@H](Cc1ccc(O)cc1)NC(=O)[C@H](CO)NC(=O)[C@H](CO)NC(=O)[C@@H](NC(=O)[C@H](CC(=O)O)NC(C)=O)C(C)C)C(C)C)C(=O)N[C@@H](C)C(=O)N[C@@H](Cc1c[nH]c2ccccc12)C(=O)N[C@@H](CC(C)C)C(=O)N[C@H](C(=O)N[C@@H](CCCCN)C(=O)NCC(=O)NCC(=O)N1CCC[C@H]1C(=O)N[C@@H](CO)C(=O)N[C@@H](CO)C(=O)NCC(=O)N[C@@H](C)C(=O)N1CCC[C@H]1C(=O)N1CCC[C@H]1C(=O)N1CCC[C@H]1C(=O)N[C@@H](CO)C(N)=O)C(C)C [SEQ ID NO: 8] (Ac-DVSSYLEEEAVRLFIAWLVKGGPSSGAPPPS-NH2) | 238.5
CC[C@H](C)[C@H](NC(=O)[C@H](Cc1ccccc1)NC(=O)[C@H](CC(C)C)NC(=O)[C@H](CCCNC(=N)N)NC(=O)[C@@H](NC(=O)[C@H](C)NC(=O)[C@H](CCC(=O)O)NC(=O)[C@H](CCC(=O)O)NC(=O)[C@H](CCC(=O)O)NC(=O)[C@H](CC(C)C)NC(=O)[C@H](Cc1ccc(O)cc1)NC(=O)[C@H](CO)NC(=O)[C@H](CO)NC(=O)[C@@H](NC(=O)[C@H](CC(=O)O)NC(=O)[C@H](CO)NC(=O)[C@@H](NC(C)=O)[C@@H](C)O)C(C)C)C(C)C)C(=O)N[C@@H](C)C(=O)N[C@@H](Cc1c[nH]c2ccccc12)C(=O)N[C@@H](CC(C)C)C(=O)N[C@H](C(=O)N[C@@H](CCCCN)C(=O)NCC(=O)NCC(=O)N1CCC[C@H]1C(=O)N[C@@H](CO)C(=O)N[C@@H](CO)C(=O)NCC(=O)N[C@@H](C)C(=O)N1CCC[C@H]1C(=O)N1CCC[C@H]1C(=O)N1CCC[C@H]1C(=O)N[C@@H](CO)C(N)=O)C(C)C [SEQ ID NO: 7] (Ac-TSDVSSYLEEEAVRLFIAWLVKGGPSSGAPPPS-NH2) | 195.5

Reference: patent publication EP4603506A1, “NOVEL GLP-1 RECEPTOR ANTAGONIST, AND PHARMACEUTICAL COMPOSITION FOR PREVENTING OR TREATING CONGENITAL […] OR HYPOGLYCEMIA, COMPRISING SAME” (Hanmi Pharm. Co., Ltd., priority 2022, dated 2024)
